PMC5797019, “Peptide inhibition of the SETD6 methyltransferase catalytic activity” (Oncotarget, 2017)

Target: GST-SETD6 (UniProt Q8TBK2)
Sequence (Q8TBK2 whole entry): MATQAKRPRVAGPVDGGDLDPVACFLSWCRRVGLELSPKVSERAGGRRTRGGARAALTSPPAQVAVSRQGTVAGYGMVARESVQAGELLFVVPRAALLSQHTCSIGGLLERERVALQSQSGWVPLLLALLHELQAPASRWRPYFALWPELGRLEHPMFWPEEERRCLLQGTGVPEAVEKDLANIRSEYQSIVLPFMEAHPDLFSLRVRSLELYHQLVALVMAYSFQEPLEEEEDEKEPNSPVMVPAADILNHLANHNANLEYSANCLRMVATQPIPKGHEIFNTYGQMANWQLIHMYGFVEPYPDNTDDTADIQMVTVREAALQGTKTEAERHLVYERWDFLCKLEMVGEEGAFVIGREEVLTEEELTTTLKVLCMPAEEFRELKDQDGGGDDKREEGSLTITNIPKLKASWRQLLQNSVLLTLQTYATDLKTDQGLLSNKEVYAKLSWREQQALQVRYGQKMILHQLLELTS

vp22-RelA302-316 peptide (from UniProt Q04206 302-316)
auto-methylation signal of recombinant GST-SETD6 (in vitro methylation assay with 3H-labeled S-adenosyl methionine) with increasing amounts of vp22-RelA; significant reduction at 0.5 μM: 2 µM
